The source of these data is US20050239072, “Device and methods for concentrating prion protein isoforms” (published 2005).

What is called Kd is the concentration at which binding is half-saturated.

Data set [1] addresses T1, human recombinant prion protein hrPrP (PrP23-231) (Homo sapiens, UniProt P04156 P04156:23-231). Description: FP filter. The following applies: tags: E. coli GST fusion, GST removed by thrombin cleavage; label: 32P internal.
The target in data set [2] is T1, human recombinant prion protein hrPrP …. Description: FP filter; no tRNA; 250 mM NaCl, 2 mM MgCl2, 37 C. The following applies: tags: E. coli GST fusion, GST removed by thrombin cleavage.
For data set [3] the target is unchanged. Nature of the data set: pulldown. The settings on record: tags: E. coli GST fusion, GST removed by thrombin cleavage; label: none; hybridized to oligo-dT-cellulose.
For data set [4], the target named is human recombinant PrP90-231 (lacks N-terminal 23-90) (Homo sapiens, UniProt P04156 P04156:90-231).

B1: MNV:AP1 (ssRNA)
RNA: GGGUUCAUAGCCUAUUCGGCUUCGCGCAUGGGAAUUUGAGGGACGAUGGGGAAGUGGGAGCGCGUUUUAAAGGACCUUUUUCCCUCGCGUAGCUAGCUACGCGAGGUGACCCCCCGAAGGGGGGUGCCCC
For B1, the Kd in data set [1] came to 3.8 nM.

B2: RQT157 (ssRNA)
RNA: GGGGUUUCGAACCGGAAUUUGAGGGAUGCCUAGGCAUCCCCCGUGCGUCCCUUUACGAGGGAUUGUCGACUCUAGAGGAUCCGGUACCUGAGGGAUGCCUAGGCAUCCCCGCGCGCCGGUUUCGGACCUCCAGUGCGUGUUACCGCACUGUCGACCC
With B2, the Kd in data set [2] (label: 32P internal) was 56 nM.

B3: RQAAA (RQ11+12 with 3' poly-A15) (ssRNA)
RNA: GGGGUUUCCAACCGGAAUUUGAGGGAUGCCUAGGCAUCCCCCGUGCGUCCCUUUACGAGGGAUUGUCGACUCUAGUCGACGUCUGGGCGAAAAAUGUACGAGAGGACCUUUUCGGUACAGACGGUACCUGAGGGAUGCCUAGGCAUCCCCGCGCGCCGGUUUCGGACCUCCAGUGCGUGUUACCGCACUGUCGACCCAAAAAAAAAAAAAAA
Turning to B3, the binding result in data set [3] is listed as “binds”.

B4: RQ11+12 (ssRNA)
RNA: GGGGUUUCCAACCGGAAUUUGAGGGAUGCCUAGGCAUCCCCCGUGCGUCCCUUUACGAGGGAUUGUCGACUCUAGUCGACGUCUGGGCGAAAAAUGUACGAGAGGACCUUUUCGGUACAGACGGUACCUGAGGGAUGCCUAGGCAUCCCCGCGCGCCGGUUUCGGACCUCCAGUGCGUGUUACCGCACUGUCGACCC
As to B4, in data set [4], the binding result is “no binding”. In addition, in data set [2] (label: 32P internal (alpha-32P CTP)), the Kd came out at 26 nM.
